Paper PMC7072297, “Structural Determinants Responsible for the Preferential Insertion of Ribonucleotides by Bacterial NHEJ PolDom” (Biomolecules, 2020)

Substrate: Nc1nc2c(ncn2[C@@H]2O[C@H](COP(=O)(O)OP(=O)(O)OP(=O)(O)O)[C@@H](O)[C@H]2O)c(=O)[nH]1
Experiment: steady-state primer extension, denaturing PAGE
Type: biochemical, Pseudomonas aeruginosa
Conditions: 200 nM primer/template DNA (Cy5P/T29(A)), misinsertion opposite template dA, 5 mM MnCl2, pH 7.5, 30 °C
Excerpt: steady-state primer extension, denaturing PAGE on Pa-PolDom

B1: Pa-PolDom (Pseudomonas aeruginosa PAO1) (protein)
chain: GARKASAGASRAATAGVRISHPQRLIDPSIQASKLELAEFHARYADLLLRDLRERPVSLVRGPDGIGGELFFQKHAARLKIPGIVQLDPALDPGHPPLLQIRSAEALVGAVQMGSIEFHTWNASLANLERPDRFVLDLDPDPALPWKRMLEATQLSLTLLDELGLRAFLKTSGGKGMHLLVPLERRHGWDEVKDFAQAISQHLARLMPERFSAVSGPRNRVGKIFVDYLRNSRGASTVAAYSVRAREGLPVSVPVFREELDSLQGANQWNLRSLPQRLDELAGDDPWADYAGTRQRISAAMRRQLGRG
notes: polymerization domain, residues 533-840; Arg532 codon replaced by start Met; E. coli BL21(DE3)
  Km: 1.211 ± 0.09 µM
  kcat: 0.92 ± 0.02 s⁻¹
